Test results as given in PMC13253070.

Assays:
[1] = target: C-terminal domain of FusB (FusB-CTD), wild type (Pectobacterium carotovorum LMG2410); test: SEC; FusB-CTD alone at varying load (0.2, 0.5, 0.8, 1.2, 2 mg); wild type and variants compared at 0.5 mg loaded; monomer and dimer species
[2] = target: C-terminal domain of FusB (FusB-CTD), wild type (Pectobacterium carotovorum LMG2410); test: ITC; 25 °C, SEC Buffer (20 mM Hepes, 140 mM NaCl, pH 8.0); typically 1.1 mM analyte injected 19 x 2 μl into 85 μM ligand in the cell; FusB-CTD constructs normally in the cell, SpFer and FusANTR-GFP constructs as injectants
[3] = target: FusB-CTD D322N (Pectobacterium carotovorum LMG2410); test: as above
[4] = target: FusB-CTD R241A (Pectobacterium carotovorum LMG2410); test: as above
[5] = target: FusB-CTD R241K (Pectobacterium carotovorum LMG2410); test: as above
[6] = target: C-terminal domain of FusB, R242K variant (Pectobacterium carotovorum LMG2410); test: ITC; 25 °C, SEC Buffer (20 mM Hepes, 140 mM NaCl, pH 8.0), MicroCal iTC200; typically 1.1 mM injectant, 19 x 2 µl, into 85 µM protein in the cell; FusB-CTD constructs normally in the cell; mean of the titrations listed in Table S2
[7] = target: C-terminal domain of FusB, wild type (Pectobacterium carotovorum LMG2410); test: as above
[8] = target: C-terminal domain of FusB, D322N variant (Pectobacterium carotovorum LMG2410); test: as above
[9] = target: C-terminal domain of FusB (FusB-CTD), wild type (Pectobacterium carotovorum LMG2410); test: ITC; competition, sequential titration: SpFer injected into the cell holding FusB-CTD (wild type or D322N) pretitrated with ~2.5 M excess of FusANTR-GFP (wild type or D53A); 25 °C, SEC Buffer; apparent
[10] = target: C-terminal domain of FusB, D322N variant (Pectobacterium carotovorum LMG2410); test: ITC; competition, apparent: SpFer injected into the cell holding FusB-CTD (wild type or D322N) pretitrated with ~2.5 M excess of FusANTR-GFP (wild type or D53A); 25 °C, SEC Buffer

C-terminal domain of FusB (FusB-CTD), wild type (domain or fragment)
stoichiometry N [1]: 2

FusANTR-GFP D53A (from UniProt C6DG80 21-66) (domain or fragment)
Kd [2]: 31.6 µM | Kd [3]: 31.8 µM

GFP fusion construct containing the N-terminal region (residues 21-66) of FusA (FusANTR-GFP), wild type (from UniProt C6DG80 21-66) (domain or fragment)
Kd [3]: 9.4 µM | Kd [4]: 38.8 µM | Kd [5]: 25.3 µM

GFP fusion construct containing the N-terminal region (residues 21-66) of FusA (domain or fragment)
Kd [6]: 33 µM | stoichiometry N [6]: < 0.2 | Kd [7]: 31.2 µM | stoichiometry N [7]: < 0.2

GFP fusion construct containing the N-terminal region (residues 21-66) of FusA, D53A variant (domain or fragment)
Kd [8]: 31.8 µM

SpFer E93A/E94A (from UniProt P00221 51-147) (natural protein)
Kd [2]: 31.3 µM

SpFer F64Y (natural protein)
Kd [2]: 30.7 µM

Spinacia oleracea (spinach) ferredoxin 1 (SpFer), wild type, recombinant (from UniProt P00221 51-147) (natural protein)
apparent KD with ~2.5 M excess of FusANTR-GFP [9]: 22.3 µM | Kd [3]: 7.4 µM | Kd [5]: 25.5 µM

Spinacia oleracea (spinach) ferredoxin 1 with a C-terminal 6His-tag (from UniProt P00221 51-147) (natural protein)
Kd [7]: 18.1 µM

Spinacia oleracea (spinach) ferredoxin 1, recombinant, tag-free (from UniProt P00221 51-147) (natural protein)
Kd [10]: 17.7 µM | Kd [7]: 7.8 µM
